Consider 22 molecules from patent US20130123171A1 (INDIANA UNIVERSITY RESEARCH AND TECHNOLOGY CORPORA, published 2013).

Values joined by “and” are separate entries in the source; they are usually repeats but may differ in a detail not shown here. Equal values may be shown once. Positions of bridges follow the written chain, without caps; N, C: chain ends. Chains are numbered I, II in the order given. No end group written: not given here.

Assay [1] addresses insulin receptor, A subtype (UniProt P06213). The assay is described as follows: cell-based or functional assay.
The target in assay [2] is insulin receptor, B subtype (UniProt P06213). Kind of assay: cell-based or functional assay.
Assay [3] deals with human insulin receptor (human) (UniProt P06213). Kind of assay: SPA competition vs 125I-insulin, human IR membranes (Example 3).
The target in assay [4] is T1, human insulin receptor (human, UniProt P06213 28-1382).
T1 construct: whole, on cells
The description is as above. On the procedure:
(§1) Non-specifically bound (NSB) radioactivity was measured in the wells with a four-fold concentration excess of “cold” native ligand than the highest concentration in test samples. Total bound radioactivity was detected in the wells with no competitor. Percent specific binding was calculated as following: % Specific Binding=(Bound-NSB/Total bound-NSB)×100.

Assay [5] has as its target T1, human insulin receptor. The assay is described as follows: cell-based or functional assay.
The target in assay [6] is T2, human IGF-1 receptor (human, UniProt P08069 31-1367).
T2 construct: whole, on cells
The assay is described as follows: cell-based or functional assay.

Assay [7] addresses T2, human IGF-1 receptor. Kind of assay: SPA competition vs 125I-IGF-1, human IGF-1R membranes (Example 3). The method, then:
as §1

Assay [8] has as its target human insulin receptor (human) (UniProt P06213). The assay is described as follows: cell-based or functional assay.
Assay [9] concerns the target T1, human insulin receptor. The assay is described as follows: in vitro insulin receptor binding assay after 9 hr in 20% plasma/PBS at 37 C, relative to native insulin.
Assay [10] concerns the target T1, human insulin receptor. Kind of assay: in vitro insulin receptor binding assay after 0 hr in 20% plasma/PBS at 37 C, relative to native insulin.
Assay [11] has as its target T1, human insulin receptor. The assay is described as follows: in vitro insulin receptor binding assay after 95 hr in 20% plasma/PBS at 37 C, relative to native insulin.

On to “B^1PEGAoa2(H5, H10,Y16,L17)25a: A^1(dLys(rE-C14),Nleu-aF19, N18, N21) (peptide)”, for which, in assay [1], the % (of insulin), in vitro phosphorylation assay, IR-A, prodrug after 78 h in PBS at 37 C came to 8.3% and the % (of insulin), in vitro phosphorylation assay, IR-A, prodrug at 0 h was 1.1%. In assay [2], the % (of insulin), in vitro phosphorylation assay, IR-B, prodrug after 78 h in PBS at 37 C came out at 6.3% and the % (of insulin), in vitro phosphorylation assay, IR-B, prodrug at 0 h was found to be 1.2%.
As usually defined, the IC50 is the concentration at which inhibition is half-maximal. High values mean a need for much substance, low ones inhibition by little substance. In [3], IGF-1 A:B (H5D10Y16L17) DPI (peptide) came in with a % insulin (in test) of 479% and an IC50 of 0.16 nM.
In the assay with human insulin receptor [4], “IGF1(Y^B16L^B17)(AlaPro)^A-1,0 (peptide)” came in with a % of Insulin Activity of 37.1% and an IC50 of 1.93 nM.
For “IGF1 A:B(Y^B16L^B17)(p-NH2-F)^A19amide (peptide)”, in the assay with human insulin receptor [4], the % of Insulin Activity worked out at 22% and the IC50 stood at 1.08 nM.
“IGF-1 A (H8 A9 N21):B (H5D10Y16L17) DPI A-COOH (peptide)”: the % Insulin, total phosphorylation, Insulin Receptor with human insulin receptor [5] is 840% and 1080%. Besides, the % IGF, total phosphorylation, IGF-1 Receptor with human IGF-1 receptor [6] turned out to be 181%. Further, in the assay with human insulin receptor [4], the % insulin (in test) was 1580% and 1670%; the IC50 is 0.05 nM and 0.09 nM. In the assay with human IGF-1 receptor [7], this molecule gave a % IGF-1 (in test) of 12.9%, a % native IGF-1 activity (0.55 nM) of 13.6% and an IC50 of 4.03 nM.
For “IGF-1 A:B (H5D10Y16L17) (S═O)DPI (peptide)”, in assay [3], the % insulin (in test) turned out to be 316% and the IC50 amounted to 0.25 nM.
In turn, “B^1Aoa2(H5, H10,Y16,L17)25a: A^1(pNH2-F19, N18, N21) (peptide)” displayed a % (of insulin), in vitro phosphorylation assay, IR-A in assay [1] of 81%. This molecule also displayed a % (of insulin), in vitro phosphorylation assay, IR-B in [2] of 48%.
As for In A:IGF-1 B(YL) (peptide), in the assay with human insulin receptor [4], the % insulin (in test) was 0.9% and 0.7%; the % native insulin activity (0.6 nM) was 0.7% and 0.6%; the IC50 is 82.6 nM and 107 nM.
Turning to “IGF-1 A:B(E10 Y16L17)-E31E32B-COOH (peptide)”, in the assay with human insulin receptor [5], the % Insulin, total phosphorylation, Insulin Receptor is 18.1% and 31.7%. Moreover, in the assay with human IGF-1 receptor [7], the % IGF-1 (in test) came out at 3%, the % native IGF-1 activity (0.55 nM) was determined as 3.1% and the IC50 is 17.5 nM.
Regarding “IGF-1 A (H8 A9 N21):B (H5D10Y16L17 A22) DPI A-COOH (peptide)”, the % Insulin, total phosphorylation, Insulin Receptor in [8] is 360% and 614%.
“IGF-1 A:B(D10Y16L17) DPI A-COOH (peptide)” registered a % Insulin, total phosphorylation, Insulin Receptor in the assay with human insulin receptor [5] of 1580%. This molecule displayed a % IGF, total phosphorylation, IGF-1 Receptor in the assay with human IGF-1 receptor [6] of 112%. For the same molecule, in the assay with human insulin receptor [4], the % insulin (in test) was 301% and 380% and 174%; the % native insulin activity (0.6 nM) was 231% and 300% and 144%; the IC50 is 0.26 nM and 0.2 nM and 0.42 nM. Moreover, in the assay with human IGF-1 receptor [7], the % IGF-1 (in test) stood at 7.7%, the % native IGF-1 activity (0.55 nM) is 8.1% and the IC50 came to 6.79 nM.
“MIU-30a: B^1(Y16,L17,Y25)29a: A^1(dLys(Ac),Sar-aF19) (peptide)”: the % Activity of Insulin with human insulin receptor [9] stood at 100%. In the assay with human insulin receptor [5], this molecule showed a % Activity of Insulin, in vitro phosphorylation assay, after 1 hr in 20% plasma of 23%; a % Activity of Insulin, in vitro phosphorylation assay, after 3 hr in 20% plasma of 26.8%; a % Activity of Insulin, in vitro phosphorylation assay, after 6 hr in 20% plasma of 32.5%; a % Activity of Insulin, in vitro phosphorylation assay, after 9 hr in 20% plasma of 41.1%. The same molecule gave a % Activity of Insulin, in vitro phosphorylation assay, after 10.5 hr in 20% plasma with human insulin receptor [5] of 43.2%. This molecule also displayed a % Activity of Insulin with human insulin receptor [10] of 34.4%. In addition, in the assay with human insulin receptor [11], the % Activity of Insulin was determined as 115%.
On to “B^1PEG-Aoa2(H5, H10,Y16,L17)25a: A^1(pNH2-F19, N18, N21), N-terminal 20 kDa PEG, no dipeptide at A19”, for which, in assay [1], the % (of insulin), in vitro phosphorylation assay, IR-A worked out at 18%. Besides, in [2], the % (of insulin), in vitro phosphorylation assay, IR-B came to 6.5%.

B1: IGF-1 A:B (H5D10Y16L17) DPI (peptide)
chain 1: GIVDECCFRSCDLRRLEMYCA-NH2
chain 2: GPEHLCGADLVDALYLVCGDRGFY-NH2
modifications: disulfide I:7-II:6 (inferred); not fully specified (bridges); ends not checked; also: C-terminal amide (chain not given here)
For B1, in the assay with human IGF-1 receptor [7], the “% IGF-1 (in test)” value stood at 11.2%, the “% native IGF-1 activity (0.55 nM)” value is 11.8% and the IC50 is 4.66 nM.

B2: IGF-1 A (H8 A9 N21):B (H5D10Y16L17 A22) DPI A-COOH (peptide)
chain 1: GIVDECCHASCDLRRLEMYCN-OH
chain 2: GPEHLCGADLVDALYLVCGDAGFY-NH2
modifications: ends and bridges not checked
Take B2: in the assay with human IGF-1 receptor [7], the “% IGF-1 (in test)” value worked out at 2.3%, the “% native IGF-1 activity (0.55 nM)” value amounted to 2.4% and the IC50 is 22.8 nM.

B3: IGF-1 A:In (1-17)-IGF-1 B (18-30) (peptide)
chain 1: GIVDECCFRSCDLRRLEMYCA-NH2
chain 2: FVNQHLCGSHLVEALYLVCGDRGFYFNKPT-NH2
modifications: disulfide I:7-II:7 (inferred); not fully specified (bridges); ends not checked; also: C-terminal amide (chain not given here)
notes: my derivation
Turning to B3, the IC50 with human insulin receptor [4] was 2.77 nM and 2.67 nM and 2.48 nM. In the assay with human IGF-1 receptor [7], the “% IGF-1 (in test)” value stood at 0.9%, the “% native IGF-1 activity (0.55 nM)” value is 0.9% and the IC50 came out at 62.5 nM.

B4: IGF-1 A:In B(1-5)-IGF-1 B(YL) (6-30) (peptide)
A chain: GIVDECCFRSCDLRRLEMYCA-NH2
B chain: FVNQHLCGAELVDALYLVCGDRGFYFNKPT-NH2
modifications: disulfide I:6-I:11, I:20-II:19, I:7-II:7; also: disulfides as in insulin
notes: my derivation
In the case of B4, in the assay with human IGF-1 receptor [7], the “% IGF-1 (in test)” value worked out at 3.6%, the “% native IGF-1 activity (0.55 nM)” value worked out at 2% and the IC50 was determined as 27.5 nM.

B5: IGF-1 A:B(E10Y16L17) (peptide)
A chain: GIVDECCFRSCDLRRLEMYCA-NH2
B chain: GPETLCGAELVDALYLVCGDRGFYFNKPT-NH2
modifications: disulfide I:7-II:6 (inferred); not fully specified (bridges); cysteine pairing not given here
notes: A chain, then B chain
For the molecule B5, the IC50 was 0.66 nM and 0.51 nM with human insulin receptor [4]; 7.85 nM and 12.2 nM in the assay with human IGF-1 receptor [7].

B6: IGF-1 A:IGF-1 B(1-8)-In (9-17)-IGF-1 B (18-30) (peptide)
chain 1: GIVDECCFRSCDLRRLEMYCA-NH2
chain 2: GPETLCGSHLVEALYLVCGDRGFYFNKPT-NH2
modifications: disulfide I:7-II:6 (inferred); not fully specified (bridges); ends not checked; also: C-terminal amide (chain not given here)
notes: my derivation
Turning to B6, in the assay with human insulin receptor [4], the “% insulin (in test)” value was 19.1%, the “% native insulin activity (0.6 nM)” value worked out at 37.7% and the IC50 was determined as 1.59 nM. Also, in the assay with human IGF-1 receptor [7], the “% IGF-1 (in test)” value came to 0.3%, the “% native IGF-1 activity (0.55 nM)” value came out at 0.4% and the IC50 was determined as 131 nM.

B7: IGF-1 A:B (E10Y16L17) DPI (peptide)
A chain: GIVDECCFRSCDLRRLEMYCA-NH2
B chain: GPETLCGAELVDALYLVCGDRGFY-NH2
modifications: disulfide I:7-II:6 (inferred); not fully specified (bridges); cysteine pairing not given here
notes: A chain, then B chain; DPI as in m25
On to B7, for which, in the assay with human IGF-1 receptor [7], the “% IGF-1 (in test)” value came to 3.3%, the “% native IGF-1 activity (0.55 nM)” value stood at 2.4% and the IC50 is 22.9 nM.

B8: IGF1 (Y^B16L^B17) (peptide)
A chain: GIVDECCFRSCDLRRLEMYCA
B chain: GPETLCGAELVDALYLVCGDRGFYFNKPT
modifications: disulfide I:7-II:6 (inferred); not fully specified (C-terminus, bridges); cysteine pairing not given here
notes: A chain, then B chain, two chain heteroduplex; also called IGF1(YL)^B16B17 analog; IGF1 A:B(Y^B16L^B17)
For B8, the IC50 with human insulin receptor [4] is 0.51 nM.

B9: IGF-1 A:B (peptide)
chain 1: GIVDECCFRSCDLRRLEMYCA-NH2
chain 2: GPETLCGAELVDALQFVCGDRGFYFNKPT-NH2
modifications: disulfide I:7-II:6 (inferred); not fully specified (bridges); ends not checked; also: C-terminal amide (chain not given here)
notes: Two chain heteroduplex of the native IGF-1 A and B chains
For the molecule B9, in the assay with human insulin receptor [4], the “% insulin (in test)” value is 5.8%, the “% native insulin activity (0.6 nM)” value was 5.8% and the IC50 turned out to be 10.4 nM.
